T1: human CLDN6, endogenously expressed on cancer cell lines (human, UniProt P56747 1-220)
T1 construct: also called Endogenous CLDN6+; CLDN6 on ARK2, OVCA429, UMUC4 cells
T1 sequence: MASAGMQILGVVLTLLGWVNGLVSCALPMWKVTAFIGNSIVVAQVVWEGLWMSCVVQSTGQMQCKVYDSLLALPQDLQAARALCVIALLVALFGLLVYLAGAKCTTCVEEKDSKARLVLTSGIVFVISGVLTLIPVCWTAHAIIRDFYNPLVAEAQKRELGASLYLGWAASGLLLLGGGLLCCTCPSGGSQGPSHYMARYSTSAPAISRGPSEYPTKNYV

T2: CLDN4-GFP expressed on engineered HEK293T cells (human, UniProt O14493 1-209)
T2 construct: whole, on cells; also called HEK293T CLDN4-mGFP; Artificial CLDN4+; not shown: GFP tag
T2 sequence (looked up): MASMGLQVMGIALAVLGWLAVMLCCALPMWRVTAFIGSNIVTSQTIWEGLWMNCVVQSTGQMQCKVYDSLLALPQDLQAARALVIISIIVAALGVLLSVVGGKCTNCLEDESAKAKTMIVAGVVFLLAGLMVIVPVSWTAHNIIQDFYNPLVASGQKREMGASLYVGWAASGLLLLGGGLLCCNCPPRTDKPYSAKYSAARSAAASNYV

T3: CLDN9-GFP expressed on engineered HEK293T cells (human, UniProt O95484 1-217)
T3 construct: whole, on cells; also called HEK293T CLDN9-mGFP; Artificial CLDN9+; not shown: GFP tag
T3 sequence (looked up): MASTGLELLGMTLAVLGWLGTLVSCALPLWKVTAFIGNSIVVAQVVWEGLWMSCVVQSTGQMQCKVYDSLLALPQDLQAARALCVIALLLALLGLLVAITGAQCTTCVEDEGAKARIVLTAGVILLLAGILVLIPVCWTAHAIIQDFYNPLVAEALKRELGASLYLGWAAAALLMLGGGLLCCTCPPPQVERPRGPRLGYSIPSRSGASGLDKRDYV

T4: mouse CLDN6 fused to GFP, expressed on engineered HEK293T cells (mouse, UniProt Q9Z262 1-219)
T4 construct: whole, on cells; also called HEK293T-CLDN6-mGFP Artificial CLDN6+ (mouse); murine CLDN6; not shown: GFP tag
T4 sequence (looked up): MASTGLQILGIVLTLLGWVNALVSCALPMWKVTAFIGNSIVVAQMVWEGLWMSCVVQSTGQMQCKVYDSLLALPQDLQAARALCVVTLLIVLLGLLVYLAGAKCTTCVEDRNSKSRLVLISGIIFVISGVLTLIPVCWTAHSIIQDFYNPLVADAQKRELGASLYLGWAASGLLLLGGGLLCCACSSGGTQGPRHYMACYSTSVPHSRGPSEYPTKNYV


Columns and labels:
[1] = molecular target: T1, human CLDN6, endogenously expressed on …; test: FACS dose curve, labelled mAb, ARK2 cells
[2] = molecular target: T1, human CLDN6, endogenously expressed on …; test: FACS dose curve, labelled mAb, OVCA429 cells
[3] = molecular target: T2, CLDN4-GFP expressed on engineered …; test: FACS dose curve, labelled mAb, HEK293T CLDN4-mGFP cells
[4] = molecular target: T3, CLDN9-GFP expressed on engineered …; test: FACS dose curve, labelled mAb, HEK293T CLDN9-mGFP cells
[5] = molecular target: T4, mouse CLDN6 fused to GFP, expressed on …; test: FACS dose curve, labelled mAb, HEK293T-CLDN6-mGFP (mouse) cells

Binder | EC50 [1] | EC50 [2] | EC50 [3] | EC50 [4] | EC50 [5]
AB7 (antibody, V domains shown, Full-length IgG (ExpiCHO)) VH: EVQLQQSGPELVKPGASMKISCKASGYSFTGYTMNWVKQSHGKNLEWIGLINPYNGGTNYNQKFKGKATLTVDKSSSTAYMELLSLTSEDSAVYYCARGVYDYDGFTYWGQGTLVTVSA VL: QIVLTQSPAIMSASLGDRVTMTCTASSSVSSSYLHWYQQKPGSSPKLWIYSTSNLASGVPARFSGSGSGTSYSLTISSMEAEDAATYYCHQYHRSPPTFGSGTKLEIK | 353 nM | 531 nM | 2090 nM | 1940 nM | 1550 nM
AB8 (antibody, V domains shown, Full-length IgG (ExpiCHO)) VH: QVQLQQSGAELARPGASVKMSCKASGYTFTTYTMHWLKQRPGQGLEWIGYINPRSGYSNYNQKFKDKATLTADKSSNTAYMQLNTLTSEDSKVYYCSRGELGGFAYWGQGTLVTVSA VL: DVVMTQTPLSLPVSLGDQASISCRSSQSLVHSDGNTYLYWYLQKPGQSPKLLIYKVSNRFSGVPDRFSGSGSGTDFTLKISRVEAEDLGVYFCSQSTHVPYTFGGGTKLEIK | 1140 nM | 1090 nM | ≥ 5000 nM | 2770 nM | ≥ 5000 nM
AB6 (antibody, V domains shown, Full-length IgG (ExpiCHO)) VH: DVQLQESGPGLVKSSQSLSLTCSVTGYSITSGYYWKWIRQFPGNKLEWMGYISYDGGINYNPSLKNRISITRDTSKNQFFLKLNSVTTEDTAKYYCARFGKGAMDYWGQGTSVTVSS VL: AIVMFQSPSSLVVSAGEKVTMSCKSSQSLLNSRTRKNYLAWYQQKPGQSPKLLIYWASTRESGVPDRFTGSGSGTDFTLTISSVQAEDLAVYYCKQSYYLYTFGGGTKLEIK | 765 nM | 394 nM | 26 nM | 2770 nM | 2220 nM

Further lines, results first:

EC50 [1] | EC50 [2] | EC50 [3] | EC50 [4] | EC50 [5] | Binder
1300 nM | 2290 nM | 2090 nM | 2470 nM |  | AB12 (antibody, V domains shown, Full-length IgG (ExpiCHO)) VH: EVKLMESGGDLVKPGGSLKLSCAASGFTFSSYAMSWVRQTPEKRLEWVASIRSGGTTYYPDSVKGRFTISRDNARNILYLRMSSLRSEDTAIYYCAKVGGNPYPMDYWGQGTSVTVSS VL: DIQMIQSPSSMFASLGDRVSLSCRASQDIGGNLDWYQQKPGGTIKLLIYSTSNLNSGVPSRFSGSGSGSDYSLTITSLESEDFADYYCLQRNAYPLTFGAGTKLELK
363 nM | 835 nM | 2240 nM |  | 2380 nM | AB11 (antibody, V domains shown, Full-length IgG (ExpiCHO)) VH: DVQLVESGGGLVQPRGSRKLSCAASGFTFSSFGMHWVRQAPEKGLEWVAYISSDSRTIYYADTVKGRFTISRDNPTNTLFLQMTSLRSEDTAMYYCARDYGRTYEAYWGQGTLVTVSA VL: DIVLTQSPASLAVSLGQRATISCRASKSVSTSGYSYIHWYQQKPGQPPKLLIYLASNLESGVPARFSGSGSGTDFTLNIHPVEEEDAATYYCQHSRELPLTFGAGTKLELK
 |  | ≥ 5000 nM |  | ≥ 5000 nM | AB15 (antibody, V domains shown, Full-length IgG (ExpiCHO)) VH: DVQLVESGGGLVQPRGSRKLSCAASGFTFSSFGMHWVRQAPEKGLEWVAYISSDSRTIYYADTVKGRFTISRDNPTNTLFLQMTSLRSEDTAMYYCARDYGRTYEAYWGQGTLVTVSA VL: NIMMTQSPSSLAVSAGEKVTMSCKSSQSVLFSSNQKNYLAWYQQKPGQSPRLLIYWASTRESGVPDRFTGSGSGTDFTLTISNVQAEDLAVYYCHQYLSSRTFGAGTKLELK
